Measured values as given in US20250042994A1 (HAINAN SIMCERE ZAIMING PHARMACEUTICAL, published 2025).
Blank lines part the entries; values can stand above or below the binder they belong to.

Experiments:
[1] = target: T1, human CD19 exon1-3-His tag protein (human, UniProt P15391 20-186, limits assumed); test: ELISA, coated human CD19 exon 1-3-His
T1 construct: membrane-distal part of the extracellular region, made in HEK293E cells; not shown: His tag
T1 sequence (looked up): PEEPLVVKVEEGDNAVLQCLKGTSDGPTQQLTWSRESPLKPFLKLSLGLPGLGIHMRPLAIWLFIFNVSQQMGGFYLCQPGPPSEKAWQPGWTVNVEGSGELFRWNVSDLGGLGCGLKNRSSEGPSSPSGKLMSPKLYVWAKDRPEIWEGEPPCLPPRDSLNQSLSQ

human CD19 on Raji cells = target: T2, human CD19 on Raji cells (human, UniProt P15391 20-556); test: FACS on Raji cells
T2 construct: whole, on cells
T2 sequence (looked up): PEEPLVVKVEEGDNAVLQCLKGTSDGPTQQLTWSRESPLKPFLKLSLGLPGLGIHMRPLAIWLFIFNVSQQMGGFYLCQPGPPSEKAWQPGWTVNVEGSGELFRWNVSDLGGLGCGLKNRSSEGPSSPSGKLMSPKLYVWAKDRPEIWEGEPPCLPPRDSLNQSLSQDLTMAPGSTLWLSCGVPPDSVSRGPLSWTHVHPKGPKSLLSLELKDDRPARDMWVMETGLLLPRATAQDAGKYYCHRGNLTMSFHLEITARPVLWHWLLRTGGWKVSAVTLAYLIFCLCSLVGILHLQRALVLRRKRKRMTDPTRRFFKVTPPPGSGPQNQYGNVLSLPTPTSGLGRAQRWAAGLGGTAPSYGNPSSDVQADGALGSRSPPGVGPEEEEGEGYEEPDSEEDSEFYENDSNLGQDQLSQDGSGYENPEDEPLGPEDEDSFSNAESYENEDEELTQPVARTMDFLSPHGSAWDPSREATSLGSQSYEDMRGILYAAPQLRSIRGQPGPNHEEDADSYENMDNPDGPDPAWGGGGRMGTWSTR
Method: (§1) After the digestion was terminated, the cells were washed 2 times with a PBS buffer; and for suspension cell Raji, the supernatant of the medium was discarded by directly centrifugation, and the cell pellet was washed 2 times with PBS. After counting the cells in the previous step, the cell pellet was resuspended with [PBS+2% (w/w) BSA] blocking solution to 2×10⁶ cells/ml, and added to a 96-well FACS reaction plate at 50 μl/well, and then the sample to be tested was added at 50 μl/well, and incubated on ice for 2 h. The obtained mixture was centrifuged and washed 3 times with a PBS buffer. […] The obtained mixture was centrifuged and washed 5 times with a PBS buffer, and FACS (FACS Canto™, purchased from BD Company) was used for detection and result analysis. Data analysis was performed by software (FlowJo) to obtain the mean fluorescence intensity (MFI) of the cells. And then software (GraphPad Prism8) was used for analysis, data fitting, and EC50 value calculation. […] The same method was used to detect the binding of the chimeric antibodies to endogenous CD19-negative cells, MoLT4 cells (purchased from ATCC, CRL-1582), and CHO-K1 cells.

Human CD19-his protein [2] = target: T3, Human CD19-his protein (human, UniProt P15391 20-291); test: ELISA, coated human CD19-His
T3 construct: bought protein; also called recombinant human CD19-His; CD19 full-length protein; not shown: His tag
T3 sequence (looked up): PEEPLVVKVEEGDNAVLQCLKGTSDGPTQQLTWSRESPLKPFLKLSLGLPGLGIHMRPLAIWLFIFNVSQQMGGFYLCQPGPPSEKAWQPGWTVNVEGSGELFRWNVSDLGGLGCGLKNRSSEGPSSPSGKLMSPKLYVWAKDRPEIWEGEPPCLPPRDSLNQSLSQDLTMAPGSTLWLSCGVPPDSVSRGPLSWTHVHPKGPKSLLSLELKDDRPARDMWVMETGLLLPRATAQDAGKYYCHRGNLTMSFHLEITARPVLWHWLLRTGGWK
Method: Human CD19-his protein (purchased from ACROBiosystems, catalog number: CD9-H52H2) was diluted with PBS to a final concentration of 4 μg/mL, and then added to a 96-well ELISA plate at 100 μl/well. The plate was sealed with a plastic film and incubated overnight at 4° C., the plate was washed 2 times with PBS the next day, and then a blocking solution [PBS+2% (w/w) BSA] was added for blocking at room temperature for 2 h. The blocking solution was poured off, and 100 nM gradiently diluted CD19 chimeric antibody or control antibody was added at 50 μl/well. After incubation at 37° C. for 2 h, the plate was washed 3 times with PBS. […] TMB substrate was added at 50 μl/well, and incubated at room temperature for 10 min, and then a stop solution (1.0 N HCl) was added at 50 μl/well. The OD450 nm values were read by an ELISA microplate reader (Multimode Plate Reader, EnSight, purchased from Perkin Elmer).

Human CD19-his protein [3] = target: T3, Human CD19-his protein; test: ELISA on coated human CD19-His
[4] = target: T4, human CD19 on CHO-K1-human CD19 cells (human, UniProt P15391 20-556); test: FACS on CHO-K1-human CD19 cells
T4 construct: whole, on cells; also called CHO-K1-human CD19-2C8
T4 sequence (looked up): T2 sequence (looked up)
Method: as §1

Human CD19-his protein [5] = target: T3, Human CD19-his protein; test: SPR Biacore, method of example 7.1, human CD19-His
Method: A sample buffer and a running buffer were HBS-EP+ (10 mM HEPES, 150 mM NaCl, 3 mM EDTA and 0.05% surfactant P20) (GE Healthcare; BR-1006-69). The flow-through cell was set to 25° C. The sample block was set to 16° C. Both were pretreated with the running buffer. In each cycle, an antibody to be detected was first captured with a Protein A chip, and then a single concentration of CD19 antigen protein was injected. The binding and dissociation processes of the antibody and the antigen protein were recorded, and finally Glycine pH 1.5 (GE Healthcare; BR-1003-54) was used to complete chip regeneration. The binding was measured by injecting different concentrations of recombinant human CD19-His proteins in a solution for 240 s with a flow rate of 30 μl/min. The concentration started from 200 nM (see the detailed results for the actual concentration in the test) and was diluted at 1:1, making a total of 5 concentrations. The dissociation phase was monitored for up to 600 s and was triggered by switching from sample solution to running buffer. The surface was regenerated by washing with a 10 mM glycine solution (pH 1.5) for 30 s at a flow rate of 30 μl/min. Bulk refractive index difference was corrected by subtracting the response obtained from the goat anti-human Fc surface. Blank injection was also subtracted (=double reference). For calculation of apparent KD and other kinetic parameters, Langmuir 1:1 model was used.
SPR (biacore) detection and data analysis were performed according to the method in example 7.1.

OD450 at 0.0001 nM [1]: 0.05 OD450
OD450 at 0.001 nM [1]: 0.05 OD450
OD450 at 0.01 nM [1]: 0.05 OD450
OD450 at 0.10 nM [1]: 0.05 OD450
OD450 at 1.00 nM [1]: 0.05 OD450
OD450 at 10 nM [1]: 0.06 OD450
OD450 at 100 nM [1]: 0.09 OD450
EC50 (human CD19 on Raji cells): 0.43 nM
Maximum mean fluorescence intensity (human CD19 on Raji cells): 31700 MFI
OD450 at 0.0001 nM (Human CD19-his protein [2]): 0.1 OD450
OD450 at 0.001 nM (Human CD19-his protein [2]): 0.13 OD450
OD450 at 0.01 nM (Human CD19-his protein [2]): 0.39 OD450
OD450 at 0.10 nM (Human CD19-his protein [2]): 1.7 OD450
OD450 at 1.00 nM (Human CD19-his protein [2]): 2.68 OD450
OD450 at 10 nM (Human CD19-his protein [2]): 2.58 OD450
OD450 at 100 nM (Human CD19-his protein [2]): 3 OD450
EC50 (read off the curve) (Human CD19-his protein [3]): ~0.05 nM
EC50 [4]: 1.23 nM
Maximum mean fluorescence intensity [4]: 54200 MFI
Kd (Human CD19-his protein [5]): 0.00058 nM
koff (Human CD19-his protein [5]): 6.84e-08 s⁻¹
kon (Human CD19-his protein [5]): 118000 M⁻¹ s⁻¹
B1: F3.121.4-L1H2 (antibody, mouse IgG1, kappa, V domains shown)
VH: EVQLVQSGAEVKKPGASVKVSCKASGYTFTNYWMHWVRQAPGQGLEWMGEIDPSDNYANYNQEFQGRVTITVDKSASTAYMELSSLRSEDTAVYYCARHDGYFGALDYWGQGTTVTVSS
VL: EIVLTQSPATLSLSPGERATLSCSASSSISSNYLHWYQQKPGQAPRFLIYRTSNLASGIPARFSGSGSGTDFTLTISSLEPEDFAVYYCQQASSIPRMFTFGQGTKLEIKR
notes: humanized antibody of F3.121.4, VL1+VH2, murine IgG1 constant regions

OD450 at 0.0001 nM [1]: 0.05 OD450
OD450 at 0.001 nM [1]: 0.05 OD450
OD450 at 0.01 nM [1]: 0.05 OD450
OD450 at 0.10 nM [1]: 0.05 OD450
OD450 at 1.00 nM [1]: 0.05 OD450
OD450 at 10 nM [1]: 0.05 OD450
OD450 at 100 nM [1]: 0.09 OD450
EC50 (human CD19 on Raji cells): 0.41 nM
Maximum mean fluorescence intensity (human CD19 on Raji cells): 30100 MFI
OD450 at 0.0001 nM (Human CD19-his protein [2]): 0.1 OD450
OD450 at 0.001 nM (Human CD19-his protein [2]): 0.13 OD450
OD450 at 0.01 nM (Human CD19-his protein [2]): 0.37 OD450
OD450 at 0.10 nM (Human CD19-his protein [2]): 1.51 OD450
OD450 at 1.00 nM (Human CD19-his protein [2]): 2.42 OD450
OD450 at 10 nM (Human CD19-his protein [2]): 2.41 OD450
OD450 at 100 nM (Human CD19-his protein [2]): 2.55 OD450
EC50 (read off the curve) (Human CD19-his protein [3]): ~0.05 nM
EC50 [4]: 1.14 nM
Maximum mean fluorescence intensity [4]: 52200 MFI
Kd (Human CD19-his protein [5]): 1.46 nM
koff (Human CD19-his protein [5]): 0.000195 s⁻¹
kon (Human CD19-his protein [5]): 134000 M⁻¹ s⁻¹
B2: F3.121.4-L2H2 (antibody, mouse IgG1, kappa, V domains shown)
VH: B1 VH
VL: EIVLTQSPDFQSVTPKEKVTITCSASSSISSNYLHWYQQKPDQSPKLLIKRTSNLASGVPSRFSGSGSGTDFTLTINSLEAEDAATYYCQQASSIPRMFTFGQGTKLEIKR
notes: humanized antibody of F3.121.4, VL2+VH2, murine IgG1 constant regions
